We go through 1 substance from patent US20260234261A1.

Common to all, as to assay: FACS binding
A general note: In flow cytometry, cells or beads pass a laser one at a time.

Assay [1] concerns the target CHOS-hCCR8-hCTLA-4 cell (human) (UniProt P16410).
The target is the same in assay [2]. The source holds these as a separate data set.
Assay [3] has the same target. This is another data set of the same source.

Where two headings read alike, the source gives them in different places.

By EC50 is commonly meant the midpoint of the concentration-response curve. The low end stands for a more potent agent, the high end for a less potent agent.

Chain of CHOS-hCCR8-hCTLA-4 cell (human) (P16410 36-223, chain 1 of 2): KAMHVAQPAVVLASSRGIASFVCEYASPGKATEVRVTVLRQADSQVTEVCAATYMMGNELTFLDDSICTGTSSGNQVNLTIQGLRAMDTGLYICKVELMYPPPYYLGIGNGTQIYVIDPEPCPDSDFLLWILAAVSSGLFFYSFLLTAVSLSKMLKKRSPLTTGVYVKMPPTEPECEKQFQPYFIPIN
Chain of CHOS-hCCR8-hCTLA-4 cell (human) (P51685 whole entry, chain 2 of 2, further chain): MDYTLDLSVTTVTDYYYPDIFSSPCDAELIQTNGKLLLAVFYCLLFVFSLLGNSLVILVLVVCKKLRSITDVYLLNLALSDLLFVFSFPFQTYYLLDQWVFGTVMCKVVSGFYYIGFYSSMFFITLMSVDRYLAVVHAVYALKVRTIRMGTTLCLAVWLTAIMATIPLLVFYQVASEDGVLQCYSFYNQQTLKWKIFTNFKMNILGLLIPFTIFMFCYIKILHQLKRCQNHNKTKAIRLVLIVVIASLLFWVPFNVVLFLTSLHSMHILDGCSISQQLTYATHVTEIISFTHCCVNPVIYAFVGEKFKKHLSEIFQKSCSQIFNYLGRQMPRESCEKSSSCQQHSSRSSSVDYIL

Yervoy: the EC50 in assay [1] was found to be 750 pM; in assay [2], 682 pM; in assay [3], 722 pM.
